Experiment [1] concerns the target CcBurs-β (Cacopsylla chinensis). Briefly: non-reduced versus reduced SDS-PAGE with western blot; His-tagged subunits expressed separately or co-expressed in HEK293T, collected from the medium and purified on Ni-NTA; 12% SDS-PAGE (non-reduced) and 15% SDS-PAGE (reduced), anti-His blot. (In general: In western blotting, separated proteins are transferred to a membrane and probed.)

The target in experiment [2] is CcBurs-α (Cacopsylla chinensis). Described as above.

The values that follow come from publication PMC11548876.

Turning to CcBurs-β (natural protein), the stoichiometry N (as a rule, a count of units in the complex or per binding partner) in experiment [1] stood at 2.
In turn, CcBurs-α (natural protein) came in with a stoichiometry N in experiment [2] of 2.
